Reference: the RNAGym collection of RNA variant scans (doi:10.1073/pnas.2313332121)
Fewer inactive variants are shown than the library holds.

B1: TPR 5TU (parent)
chain: GGAUCUUCUCGAUCUAACAAAAAAGACAAAUCUGCCACAAAGCUUGAGAGCAUCUUCGGAUGCAGAGGCGGCAGCCUUCGGUGGCGCGAUAGCGCCAACGUUCUCAACUAUGACACGCAAAACGCGUGCUCCGUUGAAUGGAGUUUAUCAUG

Variants of: B1
Assay: polymerase ribozyme fitness, log enrichment relative to wild type (log ratio); higher = more active; in vitro selection for triplet polymerase activity
Summary of the method: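 The heterodimeric triplet polymerase ribozyme's subunits were each mutagenized into PCR-built libraries and transcribed. Every library was selected once, in triplicate, by annealing with a biotinylated primer, the partner subunit and triplets, incubating frozen at −7 °C, gel-excising extended constructs, capturing on streptavidin beads and running RT-PCR. Input and output libraries were Illumina-sequenced, with genotypes kept only at ≥10 input reads and ≥1 read per output. Fitness, from inverse-variance-weighted replicate averages, is the base-2 logarithm of genotype enrichment over wild-type enrichment.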

GGAUCUUCUCGAUUUAACAAAAAAGACAAAUCUGCCACAAAGCUUGAGAGCAUCUUCGGAUGCAGAGGCGGCAGCCUUCGGUGGCGCGAUAGCGCCAACGUUCUCAACUAUGACACGCAAAACGCGUGCUCCGUUGAAUGGAGUUUAUCCUG and GGAUCUUCUCGAUUUAACAAAAAAGACAAUUCUGCCACAAAGCUUGAGAGCAGCUUCUGAUGCACAGGCGGCAACCUUCGGUGGCGCGAUAGCGCCAACGUUCUCAACUAUGACACGCAAAACGCGUGCUCCGUUGAAUGGAGUUUAUCAUG cannot be ordered by “polymerase ribozyme fitness (log ratio)” value: no more than -4.2 for the first, no more than -4.2 for the second.

GGAUCUUCUCGAUUUAACAAAAAAGACAAAUCUGCCACAACGCUUGAGAUCCUCUUCGGAUGCAGAGGCGGCAGCCUUCGGUGACGCGAGCGCGCCAACGUUCUCAACUAUGACAUGCAAAACGCGUGCUCCGUUGAAUAGAGUUUAUCAUG and GGAUCUUCUCGAUUUAACAAAAAAGACAAAUCUGCCACAAAGCUUGAGAGCAUCUUCGGAUGCAGAGGCGGCAGCCUUCGGUGGCGCGAUAGCGCCAACGUUCUCAUCUAUGACACAAAAAACGCGUGCUCCGUUGAAUGGGGUUUAUCAUG cannot be ordered by “polymerase ribozyme fitness (log ratio)” value: no more than -4.2 for the first, no more than -4.2 for the second.

GGAUCUUCUCGAUUUAACAAAAAAGACAAAUCUGCCACAAAGCUUGAGAGCAUCUUCGGAUGCAGAGGCGGCAGCCUUCGGUGGCGCGAUAGCGCCAACGUUCUCAACUAUGACAGGCAAAACGCGUAGUCCGUGGAAUGGAGUUUAUCAUG and GGAUCUUCUCGAUUUAACAAAAAAGACAAAUCUUCCACAAAGCUUGAGCGCAUCUUCGCAUGCAGAGGAGGCAGCCUUCGGUGGCGCGAUCGCGCCAACGUUCUCAACUAUGACACGCAAAACGCGUGCUCCGUUGAAAGGAGUUUCUCAUG cannot be ordered by “polymerase ribozyme fitness (log ratio)” value: no more than -4.2 for the first, no more than -4.2 for the second.

First: GGAUCUUCUCGAUUUAACAAAAAAGACAAAUCUGCCACAAUGCUUGAGAGCAUCUACGGAUGCAGAGGCGGCAGCCUUCGGUGGCGCGAUAGAGCCAACGUUCUCAACUAUGACACGCAAAAAGCGUGCUCCGUUGAAUGGAGUUUAUCAUG
Second: GGAUCUUCUCGAUUUAACAAAAAAGACAAAUCUGUCACAAAGCUUGAGAGCAUCUUCGGAUGCAGAGGCGGCAGCCUUCGGUGUCGCGAUAGCGCCAACGUUCUCAACUAUGACACGCAAAACGCGUGCUUCGUUGAAUGGAGUUUAUCAUG
The “polymerase ribozyme fitness (log ratio)” value of the first is lower: no more than -4.2 for the first, -3.79 for the second.

Compared with GGAUCUUCUCGAUUUAACAAAAAAGACAAAUCUGCCACAAAGCUUGAGAGCAUCUUCGGAUGCAGAGGCGGUAGCUUUCGGUGGCGCGAUAGCGCAAACGUUCUCAACUAUUACACGCAAAACGCGUGCUCCGUUGAAUGGAGUUUAUCAUG, GGAUCUUCUCGAUUUAACAAAAAAGACAAAUCUGCCACAAAGCUUGAGAGCAUCUUCGUAUGCAGAGGCGGCAGCCUUCGGUGGCGCGAUAGCGCCAACGUUCUCAACUAUGACACGCAAAACGCGUGCUCCGUUGAAUGGAGUUUAUCAUG is higher in “polymerase ribozyme fitness (log ratio)” value: no more than -4.2 for the first, -1.23 for the second.

GGAUCUUCUCGAUUUAACAAAAAAGACAAAUCUGCCACAAAGCUUGAGAGCAUCUUCGGAUGCAGAGGCGGCAACCUUCGGUGGCGCGAUAGCGCCAAAGUUCUCAACUAUGACACGCAAAACGCGUGCUCCGUUGAAUGGAGUUUAUCAUG and GGAUCUUCUCGAUUUAACAAAAAAGACAAAUCUGCCACAAAGCUUGAUAGCUUCUUCGGAUGCAGAGGCGGCAGCCUUCGGUGGCGCGAUAGCGCCAACGUUCUCAACUAUGACACGCAAAACGCGUGCUCCGUUGACUGGCGUUUAGCAUG cannot be ordered by “polymerase ribozyme fitness (log ratio)” value: no more than -4.2 for the first, no more than -4.2 for the second.

GGAUCUUCUCGAUUUAACAAAAAAGACAAAUCUGCCACACAGCUUGAGAGCAUUUUCGGAUGAAGAGGCGGCAGCCUUCGGUGGCGCGAUAGCGUCAACGUUCUCCACUAUGACACGCAAAACGCGUGCUCCGUUGAAUGGAGUUUAUCAUG and GGAUCUUCUCGAUUUAACAAAAAAGACAAAUCUGCCACAAAGCUUGAGAGCAUCUUCGGAUGCAGAGGCGGCACCCUUCGGUGGCGCGAUAGCGCCAACGUUCUCAGCUAUGACACGCAAAACGCGUGCUCCGUUGAAUGGAGUUUAUCAUG cannot be ordered by “polymerase ribozyme fitness (log ratio)” value: no more than -4.2 for the first, no more than -4.2 for the second.

Compared with GGAUCUUCUCGAUUUAACAAAAAAGACAAAUGUGCCACAAAGCUUGAGAGCAUCUUCGGAUGCAGAGGAGGCAGCCUUCGGUGGCGCGAUAGCGCCAACGUUCUCAACUAUGACACGCAAAACGCGUGCUCCGUUGAAUGGAGUUUAUCAUG, GGAUCUUCUCGAUUUAACAAAAAAGACAAAUCUGCCACAAAGCUUGAGAGCAUCUUCGGAUGCAGAGGCGGCAGCCUUCGGUCGCGCGAUAGCGCCAACGUUCUCCACUAUGACACGCAAAACGCGUGCUCCGUUGAAUGGAGUUUAUCAUG is higher in “polymerase ribozyme fitness (log ratio)” value: no more than -4.2 for the first, -2.96 for the second.

Going from GGAUCUUCUCGAUUUAACAAAAAAGACAAAUCUGCCACAAAGCUUGAGAGCAUCUUCGGAUGCAGAGGCGGCAGCCUUCGGUGGCGUGAUAGCGCCAAUGUUCUCAACUAUGACACGCAAAACAUGUGCUCCGUUGAAUGGAGUUUAUCAUG to GGAUCUUCUCGAUUUAACAAAAAAGACUAAUCUGCCACAAAGCUUGAGAGCCUCUUCGGAUGCAGAGGCGGCAGCCUUCGGUGGCGCUAUGGCGCUAACGUUCUCAACUAUGACACGCAAAACGCGUGCUCCGGUGAAUUGAGUUUAUCAUG, the “polymerase ribozyme fitness (log ratio)” value falls from -2.54 to no more than -4.2.

With GGAUCUUCUCGAUUUAACAAAAAAGACAAAUCUGGCACAAAGCUUGAGAGCAUCUUCGGAUGCAGAGGCGGCAGUGUUCGGUGGCGCGAUAGCGUCAACGUUCUCAACUAUGACACGCAAAACGCGUGCUCCGUUGAAUGGAGUUUAUCAUG the “polymerase ribozyme fitness (log ratio)” value was -3.81.
